Read-outs that look alike come from different tables or passages of the source.

The target in experiment [1] is Pertuzumab kappa light chain V133D_Q160E. The experiment is described as follows: LCCA, SPR.
Experiment [2] addresses Pertuzumab kappa light chain V133D. Briefly: LCCA, SPR.
Experiment [3] addresses CAT-2200 lambda light chain T131K_V133S. The experiment is described as follows: LCCA, SPR.
The target of experiment [4] is Pertuzumab kappa light chain Q124E_V133D_L135W. Briefly: LCCA, SPR tag read-out.
In experiment [5] the target is Pertuzumab kappa light chain V133D_Q160E. Briefly: LCCA, SPR. This is another data set of the same source.
For experiment [6], the target named is CAT-2200 lambda light chain E124Q_T131K_V133S. Briefly: LCCA, SPR tag read-out.
The target in experiment [7] is Pertuzumab kappa light chain V133L_S176D_T178E. Briefly: LCCA, SPR.
The target is the same in experiment [8]. The experiment is described as follows: LCCA, SPR. This is another data set of the same source.
In experiment [9] the target is CAT-2200 lambda light chain E124Q_T131R. The experiment is described as follows: LCCA, SPR.
The target in experiment [10] is Pertuzumab light chain (kappa) V133L_S176D_T178E, HA-tagged. Briefly: LCCA.
For experiment [11] the target is unchanged. The experiment is described as follows: LCCA. This is another data set of the same source.
Experiment [12] has the same target. The experiment is described as follows: LCCA. The source holds these as a separate data set.
For experiment [13] the target is unchanged. The experiment is described as follows: LCCA. The source holds these as a separate data set.
The target in experiment [14] is Pertuzumab light chain (kappa) V133I_S176D_T178E, HA-tagged. Briefly: LCCA.
Experiment [15] addresses Pertuzumab light chain (kappa) V133I_S176E_T178E, HA-tagged. The experiment is described as follows: LCCA.
Experiment [16] addresses Pertuzumab light chain (kappa) V133L_S176D_T178E, HA-tagged. The experiment is described as follows: LCCA. This is another data set of the same source.
Experiment [17] has the same target. Briefly: LCCA. The source holds these as a separate data set.
Experiment [18] deals with CAT-2200 light chain (lambda) E124Q_T131K_V133S, FLAG-tagged. Briefly: LCCA.
Experiment [19] concerns the target Pertuzumab light chain (kappa) V133D, HA-tagged. The experiment is described as follows: LCCA.
The target of experiment [20] is Pertuzumab light chain (kappa) V133D_Q160E, HA-tagged. Briefly: LCCA.
Experiment [21] deals with Pertuzumab light chain (kappa) V133D, HA-tagged. The experiment is described as follows: LCCA. This is another data set of the same source.
In experiment [22] the target is Pertuzumab light chain (kappa) V133D_Q160E, HA-tagged. The experiment is described as follows: LCCA. The source holds these as a separate data set.
The target in experiment [23] is CAT-2200 light chain (lambda) T131K_V133S, FLAG-tagged. Briefly: LCCA.
The target in experiment [24] is Pertuzumab light chain (kappa) V133D, HA-tagged. Briefly: LCCA. This is another data set of the same source.
For experiment [25], the target named is CAT-2200 light chain (lambda) E124Q_T131K_V133S, FLAG-tagged. The experiment is described as follows: LCCA. This is another data set of the same source.
For experiment [26], the target named is Pertuzumab light chain (kappa) V133D_Q160E, HA-tagged. The experiment is described as follows: LCCA. The source holds these as a separate data set.
The target in experiment [27] is Pertuzumab light chain (kappa) V133D, HA-tagged. Briefly: LCCA. The source holds these as a separate data set.
Experiment [28] concerns the target Pertuzumab light chain (kappa) V133D_Q160E, HA-tagged. The experiment is described as follows: LCCA. The source holds these as a separate data set.
Experiment [29] has as its target CAT-2200 lambda light chain K129T_V133D. The experiment is described as follows: LCCA, SPR.
For experiment [30] the target is unchanged. Briefly: LCCA, SPR. The source holds these as a separate data set.
The target of experiment [31] is CAT-2200 light chain (lambda) T131K_V133S, FLAG-tagged. Briefly: LCCA. This is another data set of the same source.
The target in experiment [32] is CAT-2200 light chain (lambda) E124Q_T131K, FLAG-tagged. The experiment is described as follows: LCCA.
Experiment [33] concerns the target Pertuzumab light chain (kappa) S131E_V133G_T178F, HA-tagged. The experiment is described as follows: LCCA.
In experiment [34] the target is Pertuzumab light chain (kappa) S176E_T178E, HA-tagged. Briefly: LCCA.
Experiment [35] concerns the target Pertuzumab light chain (kappa) V133I_S176D_T178E, HA-tagged. The experiment is described as follows: LCCA. The source holds these as a separate data set.
Experiment [36] has as its target Pertuzumab light chain (kappa) S131D_V133G_T178F, HA-tagged. Briefly: LCCA.
Experiment [37] deals with Pertuzumab light chain (kappa) S176E_T178E, HA-tagged. Briefly: LCCA. The source holds these as a separate data set.
In experiment [38] the target is Pertuzumab light chain (kappa) S176D_T178E, HA-tagged. The experiment is described as follows: LCCA.
Experiment [39] addresses Pertuzumab light chain (kappa) S176E_T178E, HA-tagged. The experiment is described as follows: LCCA. The source holds these as a separate data set.
The target in experiment [40] is Pertuzumab light chain (kappa) S131D_V133G_T178F, HA-tagged. Briefly: LCCA. The source holds these as a separate data set.
Experiment [41] has as its target Pertuzumab light chain (kappa) V133G_S176D, HA-tagged. The experiment is described as follows: LCCA.
For experiment [42], the target named is CAT-2200 light chain (lambda) V133I_L135R_Y178F, FLAG-tagged. The experiment is described as follows: LCCA.
In experiment [43] the target is CAT-2200 light chain (lambda) Y178K, FLAG-tagged. Briefly: LCCA.
The target in experiment [44] is CAT-2200 light chain (lambda) V133I_L135K, FLAG-tagged. The experiment is described as follows: LCCA.
In experiment [45] the target is Pertuzumab light chain (kappa) V133G_S176D, HA-tagged. Briefly: LCCA. This is another data set of the same source.
Experiment [46] shares this target. Briefly: LCCA. The source holds these as a separate data set.
Experiment [47] concerns the target Pertuzumab kappa light chain S131E_V133G_T178F. The experiment is described as follows: LCCA, SPR.
For experiment [48], the target named is Pertuzumab kappa light chain S176E_T178E. Briefly: LCCA, SPR.
The target of experiment [49] is Pertuzumab kappa light chain V133I_S176D_T178E. Briefly: LCCA, SPR.
Experiment [50] concerns the target Pertuzumab kappa light chain S131D_V133G_T178F. The experiment is described as follows: LCCA, SPR.
The target of experiment [51] is CAT-2200 lambda light chain E124Q_T131R. Briefly: LCCA, SPR tag read-out.
Experiment [52] addresses Pertuzumab kappa light chain S131E_V133G_T178F. The experiment is described as follows: LCCA, SPR. The source holds these as a separate data set.
In experiment [53] the target is Pertuzumab kappa light chain S176E_T178E. The experiment is described as follows: LCCA, SPR. The source holds these as a separate data set.
The target of experiment [54] is CAT-2200 lambda light chain E124Q_T131R. Briefly: LCCA, SPR. The source holds these as a separate data set.
Experiment [55] deals with CAT-2200 lambda light chain E124Q_T131K. The experiment is described as follows: LCCA, SPR.
Experiment [56] concerns the target Pertuzumab kappa light chain S131D_V133G_T178F. Briefly: LCCA, SPR. The source holds these as a separate data set.
The target of experiment [57] is CAT-2200 lambda light chain Y178K. Briefly: LCCA.
Experiment [58] deals with Pertuzumab kappa light chain L135W_S176E_T178E. The experiment is described as follows: LCCA.
Experiment [59] addresses CAT-2200 lambda light chain E124Q_T131R. Briefly: LCCA, SPR. The source holds these as a separate data set.
The target is the same in experiment [60]. The experiment is described as follows: LCCA, SPR tag read-out. The source holds these as a separate data set.
The target of experiment [61] is Pertuzumab kappa light chain S131D_V133G_L135W_T178F. The experiment is described as follows: LCCA, SPR tag read-out.
Experiment [62] concerns the target Pertuzumab kappa light chain V133I_L135W_S176D_T178E. Briefly: LCCA, SPR tag read-out.

Turning to Pertuzumab Fab heavy chain S186K, the H2L2:H2L1 normalized median ratio worked out at 74% in [1], 26% in [3], 72% in experiment [4] and 28% in experiment [6]. For the same substance, the H2L2:H2L1 normalized median scalar value ln(r1/f1) was determined as 1.05 in [1], 0.77 in experiment [2] and 0.22 in [5]. For the same substance, the H2L2:H2L1 median scalar value in [4] was 0.96 ln(ratio).

For Pertuzumab Fab heavy chain V177I_S188K, the H2L2:H2L1 normalized median scalar value ln(r1/f1) in experiment [7] was determined as 2.3; in experiment [8], 2.15. Moreover, in experiment [9], the H2L2:H2L1 normalized median ratio amounted to 9%.

“Pertuzumab heavy chain Fab construct V177I_S188K”: the H2L2:H2L1 normalized median scalar value ln(r1/f1) in [10] was determined as 1.83; in experiment [11], 2.3; in [12], 0.55; in experiment [13], 2.38; in [14], 2.58; in [15] it was 2.63. In addition, the H2L2:H2L1 normalized median scalar value ln(r1/f1) was found to be 2.15 in experiment [16] and 1.64 in experiment [17].

As for “Pertuzumab heavy chain Fab construct S186K”, the H2L2:H2L1 normalized median ratio (H2L1 share) is 31% in experiment [18], 26% in [23] and 22% in experiment [25]. Besides, the H2L2:H2L1 normalized median scalar value ln(r1/f1) in [19] was 0.77; in experiment [20], 1.05; in experiment [21] it was 0.02; in [22], 0.22; in [24], 0.82; in experiment [26] it was 1.27. Also, the H2L2:H2L1 normalized median scalar value ln(r1/f1) in experiment [27] amounted to 0.22; in experiment [28], 0.41.

As to CAT-2200 Fab heavy chain L143K, the results for the H1L1:H1L2 normalized median scalar value ln(r1/f1) in [29] and in experiment [30] were 1.55 and 0.9, respectively.

Turning to “Pertuzumab heavy chain Fab construct L143I_S186K”, the H2L2:H2L1 normalized median ratio (H2L1 share) in [31] was 28%; in experiment [25], 17%; in experiment [32] it was 31%. For the same substance, the H2L2:H2L1 normalized median scalar value ln(r1/f1) in [19] worked out at 0.92; in [20], 1.5; in experiment [21] it was 0.26; in experiment [22], 0.76; in experiment [24] it was 1.18; in experiment [26] it was 1.6. The H2L2:H2L1 normalized median scalar value ln(r1/f1) in [27] was found to be 0.36; in experiment [28], 0.81.

For the substance “Pertuzumab heavy chain Fab construct S188K”, the H2L2:H2L1 normalized median scalar value ln(r1/f1) in [33] worked out at 1.67; in experiment [34] it was 2.75; in [35] it was 2.33; in [36], 2.22; in [37], 2.67; in [38] it was 1.41. The values for the H2L2:H2L1 normalized median scalar value ln(r1/f1) in [39] and in experiment [40] were 2.71 and 1.5, respectively.

As to “Pertuzumab heavy chain Fab construct L124R”, the H2L2:H2L1 normalized median ratio, H2L2 share was 84% in experiment [41], 86% in experiment [45] and 83% in experiment [46]. Moreover, the H2L2:H2L1 normalized median scalar value ln(r1/f1) was 1.68 in experiment [41], 1.8 in experiment [45] and 1.56 in experiment [46]. The H2L2:H2L1 normalized median ratio (H2L1 share) in experiment [42] was 17%; in experiment [43], 16%; in [44], 14%.

As for Pertuzumab Fab heavy chain S188K, the H2L2:H2L1 normalized median ratio in [47] was 84%; in [49], 91%; in experiment [51], 15%; in [52], 85%; in [54], 16%; in [55], 15%. The H2L2:H2L1 normalized median ratio in [57] amounted to 8%; in [58] it was 92%; in experiment [59], 9%; in experiment [60] it was 12%; in experiment [61], 85%; in [62], 88%. Moreover, the H2L2:H2L1 normalized median scalar value ln(r1/f1) in experiment [47] turned out to be 1.67; in experiment [48], 2.75; in experiment [49], 2.33; in experiment [50], 2.22; in experiment [52], 1.7; in experiment [53], 2.71. Also, the H2L2:H2L1 normalized median scalar value ln(r1/f1) in [56] stood at 1.5. The H2L2:H2L1 median scalar value was 2.55 ln in experiment [58], 1.72 ln(ratio) in experiment [61] and 2.03 ln(ratio) in experiment [62].
